This is an account of results in the supplement of paper PMC9732359.

The nature of the series: protein stability index of a GFP-peptide fusion (yeast GPS) (PSI 1-4); higher = more stable; sorted into four equal gates, so the index is relative within each strain. In short, it runs like this: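 Mid-log yeast cultures in leucine-free medium, carrying a pooled plasmid library, were sorted into four equal gates by their GFP/Cherry fluorescence ratio. Each plasmid expressed Cherry along with GFP fused upstream of a tiled 17-residue yeast protein peptide. Plasmids recovered from each gate were PCR-amplified and Illumina-sequenced, with reads assigned to strains by barcodes. The protein stability index was obtained by summing each gate's read frequency weighted by its gate number.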

± gives the uncertainty stated by the source.

On to ASSWAKKIAQRERRAAL [RPL14A], for which the protein stability index reads like this: (doa10∆) 2.53 ± 0.099; (pdr5∆) 3.32 ± 0.14; (san1∆) 2.62 ± 0.18; (ubr1∆) 2.22 ± 0.079.

On to ATAIGKGSVAAKTFLEK [PRE8], for which the protein stability index is, setting by setting: (doa10∆) 2.13 ± 0.2; (pdr5∆) 1.28 ± 0.17.

As to ATDVEARAVQDNGESAF [RPL13A], the protein stability index came to 3.16 ± 0.11 (doa10∆), 2.99 ± 0.088 (pdr5∆), 1.56 ± 0.094 (san1∆) and 2.85 ± 0.094 (ubr1∆).

Take ATFSVSQASSDLGETFR [CSL4]: the protein stability index (doa10∆) was determined as 3.04 ± 0.086, the protein stability index (pdr5∆) is 2.64 ± 0.064, the protein stability index (san1∆) was 3.23 ± 0.065 and the protein stability index (ubr1∆) was found to be 2.57 ± 0.041.

Regarding ATLYIPKALRFDRLVAG [FAS2], the protein stability index was 2.88 ± 0.22 (doa10∆), 1.23 ± 0.068 (pdr5∆) and 1.44 ± 0.09 (ubr1∆).

Turning to ATPGRLIDSLENHLLVM [PRP28], the protein stability index came to 2.66 ± 0.067 (doa10∆), 2.37 ± 0.05 (pdr5∆), 2.06 ± 0.11 (san1∆) and 2.1 ± 0.06 (ubr1∆).

Take ATPQDAQFYLGKRIAYV [RPL33A]: the protein stability index reads like this: (doa10∆) 2.29 ± 0.082; (pdr5∆) 2.66 ± 0.07; (san1∆) 2.57 ± 0.074; (ubr1∆) 2.7 ± 0.075.

In the case of ATQSGGVRPFGVSLLIA [PRE8], the protein stability index is 1.29 ± 0.071 (doa10∆), 1.62 ± 0.071 (pdr5∆), 1.4 ± 0.17 (san1∆) and 1.51 ± 0.064 (ubr1∆).

For the sequence ATSFSRKKARTFDSSWN [FAS2], the protein stability index came to 2.22 ± 0.17 (doa10∆), 2.99 ± 0.18 (pdr5∆), 2.65 ± 0.16 (san1∆) and 3.05 ± 0.076 (ubr1∆).

Take ATTSVMMVNNQTMQLIK [SRB6]: the protein stability index is, setting by setting: (doa10∆) 3.09 ± 0.16; (pdr5∆) 2.1 ± 0.17; (san1∆) 2.12 ± 0.1.

AVAASSTKTGTPSDLSE [POP1]: the protein stability index amounted to 3.3 ± 0.084 (doa10∆), 3.26 ± 0.077 (pdr5∆), 3.41 ± 0.045 (san1∆) and 3.33 ± 0.035 (ubr1∆).

As to AVARLKSMNKSAINQYN [SNF2], the protein stability index worked out at 1.81 ± 0.073 (doa10∆), 2.33 ± 0.076 (pdr5∆), 2.34 ± 0.052 (san1∆) and 2.88 ± 0.032 (ubr1∆).

Take AVCSTATVVSTNHSAAA [PGD1]: the protein stability index is 2.85 ± 0.064 (doa10∆), 3.02 ± 0.077 (pdr5∆), 2.59 ± 0.096 (san1∆) and 2.91 ± 0.061 (ubr1∆).

AVDLEHHDYRSYYGIVC [RRP6]: the protein stability index is 2.5 ± 0.067 (doa10∆), 2.77 ± 0.049 (pdr5∆), 2.37 ± 0.083 (san1∆) and 2.97 ± 0.038 (ubr1∆).

In the case of AVEFESVPLRKGDRALL [BRR2], the protein stability index (doa10∆) came out at 3.16 ± 0.29, the protein stability index (pdr5∆) was 3.45 ± 0.14, the protein stability index (san1∆) turned out to be 2.98 ± 0.075 and the protein stability index (ubr1∆) was 2.87 ± 0.11.

As to AVTHNLYYDEDINVESL [PUP2], the protein stability index by setting is: (doa10∆) 3.16 ± 0.11; (pdr5∆) 3.25 ± 0.088; (san1∆) 3.05 ± 0.18; (ubr1∆) 2.89 ± 0.06.

As to AVVQTVKGLLNTYKRLV [YJL039C/NUP192], the protein stability index by setting is: (doa10∆) 1.8 ± 0.11; (pdr5∆) 2.37 ± 0.085; (san1∆) 1.92 ± 0.14; (ubr1∆) 2.45 ± 0.083.

In the case of AYIKLLDQTKDTRITHL [SNF2], the protein stability index by setting is: (doa10∆) 2.65 ± 0.085; (pdr5∆) 3.03 ± 0.072; (san1∆) 2.78 ± 0.06; (ubr1∆) 2.39 ± 0.062.

On to AYILAAQKTSFEYEGVQ [RPN1], for which the protein stability index reads like this: (doa10∆) 2.39 ± 0.072; (pdr5∆) 2.35 ± 0.079; (san1∆) 2.2 ± 0.15; (ubr1∆) 2.23 ± 0.08.

AYPAAREQFLNAQDIDH [FAS1]: the protein stability index runs as follows: (doa10∆) 3.13 ± 0.082; (pdr5∆) 3.15 ± 0.11; (san1∆) 2.84 ± 0.11; (ubr1∆) 3.21 ± 0.054.

With AYSNTNTNTENENRNTG [SNF11], the protein stability index was determined as 3.1 ± 0.14 (doa10∆), 2.95 ± 0.065 (pdr5∆), 2.95 ± 0.071 (san1∆) and 2.95 ± 0.072 (ubr1∆).

For the sequence CDILVATPGRLIDSLEN [PRP28], the protein stability index runs as follows: (doa10∆) 3.54 ± 0.12; (pdr5∆) 3.24 ± 0.11; (san1∆) 3.2 ± 0.06; (ubr1∆) 3.22 ± 0.065.

CEQQPSQEREFSLLVKA [SIN4]: the protein stability index is 3.01 ± 0.077 (doa10∆), 3.07 ± 0.08 (pdr5∆), 2.94 ± 0.054 (san1∆) and 3.04 ± 0.045 (ubr1∆).

For CERRSTLKLQDTRITPS [PRE6], the protein stability index reads like this: (doa10∆) 2.53 ± 0.061; (pdr5∆) 2.81 ± 0.092; (san1∆) 3.09 ± 0.099; (ubr1∆) 2.82 ± 0.059.

On to CFICLLHLANEHGLQIT [BRN1], for which the protein stability index (doa10∆) was 2.54 ± 0.12, the protein stability index (pdr5∆) was 2.81 ± 0.17, the protein stability index (san1∆) came out at 2.61 ± 0.17 and the protein stability index (ubr1∆) was 2.87 ± 0.087.
